First the molecules themselves.
B1: Leptospira interrogans glyceraldehyde-3-phosphate dehydrogenase (GAPDH) (enzyme)
chain: MTRIAINGFGRIGRLVFRAGIKDPNLEFVAINDLVTPDNLAYLLKYDSTHGRFQGTVEHTEKELIVDGKKILCVSERDPEKLPWKDLKVDYVIESTGLFTDRVGAEKHIKAGAKKVVISAPAKDKDIPTFVMGVNNEKYNPSNDHIVSNASCTTNCLAPIVKVVLDNWGIEEGLMTTIHATTATQPTVDGPSKKDFRGGRGAMQNIIPASTGAAKAVGLCIPEVNGKLTGMSFRVPTPDVSVVDLTVRTTKETSLKEISAKMKAASEGAMKGILGYTEDMVVSNDFVSSTLSSIFDMDACIELNSRFFKLVSWYDNEMGYSNRVLDLIRYMAKKG
notes: also called LiGAPDH; L. interrogans GAPDH; source: E. coli Rosetta(DE3), purified (HisTrap, Superdex 200 SEC); not shown: His6, N-terminal, kept
B2: biotinylated-C5a (ligand)
chain: TLQKKIEEIAAKYKHSVVKKCCYDGACVNNDETCEQRAARISLGPRCIKAFTECCVVASQLRANISHKDMQLGR
modifications: biotinylated (site not stated)
notes: also called immobilized C5a; source: bought: Abvance Biotech (ABVC5ARBIO1)

Series [1] deals with the molecule itself. Briefly: SEC; HiLoad 16/60 Superdex 200 pg in 10 mM HEPES-NaOH (pH 7.4), 150 mM NaCl, 3.4 mM EDTA; elution volume compared with a calibration curve. A general note: In gel filtration, larger molecules generally elute earlier.
The target of series [2] is B1. Briefly: BLI. The conditions noted are these: both partners purified.

One may read the stoichiometry N as the number of molecules, sites or subunits per partner or assembly. The term kon denotes the second-order rate constant of association. Low readings indicate slower complex formation, high ones faster complex formation.

Take B1: the “stoichiometry N” value in series [1] stood at 4.
With B2, the kon in series [2] amounted to 37.3 ± 0.2 M⁻¹ s⁻¹.
